# Measured values from paper PMC5481817, “Developing Targeted Hybrid Imaging Probes by Chelator Scaffolding” (Bioconjugate chemistry, 2017).
# *1 amine or outer side, *2 acyl side, *3 side chain or, on linkers, in order; H or OH if unused. Where a SMILES comes first, the peptide text is derived from it. Bridges are numbered along the chain shown (N, C = ends). Roman numbers before positions name the chains, in order. [ ]: non-standard residue; d: D form. X1 = C/C1=C/C(=O)N(O)CCC[C@H](NC(=O)CCN2C(=O)CC([*:2])C2=O)C(=O)OCC/C(C)=C\C(=O)N(O)CCC[C@H](NC(=O)CCN2C(=O)CC([*:1])C2=O)C(=O)OCC/C(C)=C\C(=O)N(O)CCC[C@H](NC(=O)CCCCC[N+]2=C(C=CC3=CC(=CC=C4N(C)c5ccc(S(=O)(=O)[O-])cc5C4(C)C)CCC3)C(C)(C)c3cc(S(=O)(=O)O)ccc32)C(=O)OCC1; Mpa = O=C(O)CCS
# Tests used:
# [1] = in vivo; settings: mouse
# Procedure: All animal experiments were conducted in accordance with regulations and guidelines of the Czech Animal Protection Act (No. 246/1992), and with the approval of the Czech Ministry of Education, Youth, and Sports (MSMT-22421/2013–12), and the institutional Animal Welfare Committee of the Faculty of Medicine and Dentistry of Palacky University in Olomouc. The studies were performed using female 8–10-week-old athymic BALB/c nude mice (Envigo, Horst, The Netherlands). The number of animals was reduced as much as possible (n = 3 per group and time point for all experiments) and retro-orbital (r.o.) tracer injection as well as small animal imaging was carried out under 2% isoflurane anesthesia (FORANE, Abbott Laboratories, Abbott Park, IL, USA) to minimize animal suffering.
# Tumor xenografts were established near the front shoulder of mice by subcutaneous injection of 5 × 10^6 cells (U-87 MG) or 2 × 10^6 cells (A431-CCK2R) and the same amount of A431-mock cells as a control in 200 μL appropriate medium and Matrigel (1:1). The tumors were allowed to grow until they had reached a volume of 0.2 to 0.5 cm^3. To evaluate ex vivo biodistribution mice were injected with 1–2 MBq (0.05–0.14 nmol) of radiotracer per mouse and mice were sacrificed by cervical dislocation after 30 and 90 min for [^68Ga]Sulfo-Cy7-FSC-RGD and after 1 and 2 h in the case of [^68Ga]Sulfo-Cy7-FSC-MG. Tumors, blood, muscle tissue, and organs were extracted, weighed, and activity uptake of the samples was measured in the gamma counter. Results were expressed as percentage of injected dose per gram tissue (% ID/g). In vivo PET and CT images were acquired with an Albira PET/SPECT/CT small animal imaging system (Bruker Biospin Corporation, Wood-bridge, CT, USA). Xenograft bearing mice were injected with radiolabeled peptides in a dose of ~5 MBq corresponding to 1–2 μg (0.25–0.58 nmol) of peptide per mouse. Anaesthetized animals were positioned prone head first in the Albira system before the start of imaging. Static PET/CT imaging was carried out 30 and 90 min p.i. for [^68Ga]Sulfo-Cy7-FSC-RGD. Animals injected with [^68Ga]Sulfo-Cy7-FSC-MG were imaged 1 and 2 h p.i. A 10 min PET scan (axial FOV 148 mm) was performed, followed by a CT scan (axial FOV 65 mm, 45 kVp, 400 μA, at 400 projections). Scans were reconstructed with the Albira software (Bruker Biospin Corporation, Woodbridge, CT, USA) using the maximum likelihood expectation maximization (MLEM) and filtered backprojection (FBP) algorithms. After reconstruction, acquired data was viewed and analyzed with PMOD software (PMOD Technologies Ltd., Zurich, Switzerland). 3D images were obtained using VolView software (Kitware, Clifton Park, NY, USA). Near-infrared in vivo fluorescence imaging was performed with an In-Vivo MS FX PRO small animal imaging system (Bruker Biospin Corporation, Woodbridge, CT, USA). Sulfo-Cy7-FSC-MG and Sulfo-Cy7-FSC-RGD were injected in a dose of 0.25–0.58 nmol per mouse and after supine head first positioning, imaging was conducted in various time intervals up to 72 h p.i. An appropriate filter set (excitation = 730 nm and emission = 790 nm) was used for acquiring the Sulfo-Cy7-FSC-peptide - fluorescence in vivo. Identical illumination settings (acquisition time = 15 s, filters = 730/790 nm, f-stop = 2.8, field of view = 100 mm, and binning = 4 × 4) were used for acquiring all images, and fluorescence emission was normalized to photons/s/mm^2. Images were acquired and analyzed using Bruker MI SE software (Bruker Biospin Corporation, Woodbridge, CT, USA).
# [2] = physchem; type: physicochemical; settings: buffer or solvent
# Procedure: (§1) [^68Ga]Sulfo-Cy7-FSC-MG and [^68Ga]Sulfo-Cy7-FSC-RGD (6 MBq) were diluted with phosphate buffered saline to a concentration of 1 μM. Subsequently 50 μL of this solution was added to six Eppendorf tubes containing 450 μL PBS and 500 μL octanol. The mixture was vortexed (1400 rpm) at RT for 15 min using a MS 3 basic vortexer (IKA, Staufen, Germany) followed by centrifugation for 2 min at 4500 rpm. Aliquots of 100 μL of both phases were transferred to plastic vials, measured in the γ-counter and logD values were calculated. For stability testing, radiolabeled tracers were diluted with 450 μL fresh human serum and 450 μL PBS as control to a concentration of 2 μM followed by incubation at 37 °C. After 1, 2, and 4 h (n = 3) 50 μL aliquots were precipitated with acetonitrile (1:1) and centrifuged for 2 min at 14 × 10^3 rpm. The supernatant was analyzed by radio-RP-HPLC to evaluate for decomposition and corresponding chromatograms are shown in Supporting Information. For protein binding measurement aliquots were analyzed by size exclusion chromatography using MicroSpin G-50 Columns (Sephadex G-50, GE Healthcare, Vienna, Austria) in triplicates. First, the columns were centrifuged at 750 rcf for 1 min to remove the storage buffer. After adding 25 μL of incubation solution columns were centrifuged again for 2 min with 2000 rcf. Column and eluate were measured in the γ-counter and percentages of nonprotein bound radiolabeled peptide (column) and protein bound radiotracer (eluate) were calculated.
# [3] = test system: A431-CCK2R cells; test: CCK-2 receptor internalization assay (radioligand); type: cell-based, human; settings: for unspecific membrane bound amount: blocked with pentagastrin
# Procedure: To determine the receptor-mediated radioligand uptake A431-CCK2R cells were seeded into 12-well plates (Nunc, Thermo Scientific) with a density of 2 × 10^6 cells per well and left to grow overnight at 37 °C. At the day of the experiment each well was washed twice with fresh internalization medium (DMEM containing 1% fetal bovine serum) followed by the adjustment to a final volume of 1.2 mL with media. After dividing the plate into an unblocked and blocked compartment (6 wells each) 150 μL PBS/0.5% bovine serum albumin (BSA) solution or 150 μL blocking solution (100-fold molar excess of pentagastrin in PBS/0.5% BSA solution) were added and left for 10 min at room temperature. Hereafter, 150 μL of the radiolabeled peptide (1 nM [^68Ga]Sulfo-Cy7-FSC-MG in PBS/0.5% BSA approximately 3 × 10^4 cpm) was added to each well followed by incubation at 37 °C for 1 and 2 h, respectively. After removal of the supernatant each well was washed two times with 1 mL ice-cold internalization medium and supernatants were collected in plastic vials (wash fraction). For determination of the membrane bound radiotracer cells were incubated twice with 1 mL ice-cold 0.05 M glycine-buffer (pH 2.8) for 5 min collecting the supernatants. Finally, internalized fraction was obtained by lysing the cells with 1 mL of 2 M sodium hydroxide solution (NaOH) two times and collecting the samples. To determine the amount of radiotracer of each fraction all samples were taken for γ-counter measurement against standard solution, i.e., 150 μL radiotracer.
# [4] = type: physicochemical; settings: pH 7.4
# Procedure: as §1, with “First, the columns were centrifuged at 750 rcf for 1 min to remove the storage buffer. After adding 25 μL of incubation solution columns were centrifuged again for 2 min with 2000 rcf.” left out
# [5] = in vitro; type: in vitro ADME, human; settings: human, serum
# Procedure: as §1, with “First, the columns were centrifuged at 750 rcf for 1 min to remove the storage buffer. After adding 25 μL of incubation solution columns were centrifuged again for 2 min with 2000 rcf.” left out
# [6] = test system: A431-CCK2R/A431-mock tumor xenograft-bearing BALB/c nude mice; test: Static micro-PET/CT imaging, A431-CCK2R/A431-mock xenografts; type: in vivo, mouse; settings: static PET, 60 and 120 min post-injection
# Procedure: All animal experiments were conducted in accordance with regulations and guidelines of the Czech Animal Protection Act (No. 246/1992), and with the approval of the Czech Ministry of Education, Youth, and Sports (MSMT-22421/2013–12), and the institutional Animal Welfare Committee of the Faculty of Medicine and Dentistry of Palacky University in Olomouc. The studies were performed using female 8–10-week-old athymic BALB/c nude mice (Envigo, Horst, The Netherlands). […]
# Tumor xenografts were established near the front shoulder of mice by subcutaneous injection of 5 × 10^6 cells (U-87 MG) or 2 × 10^6 cells (A431-CCK2R) and the same amount of A431-mock cells as a control in 200 μL appropriate medium and Matrigel (1:1). […] Tumors, blood, muscle tissue, and organs were extracted, weighed, and activity uptake of the samples was measured in the gamma counter. Results were expressed as percentage of injected dose per gram tissue (% ID/g). […] After reconstruction, acquired data was viewed and analyzed with PMOD software (PMOD Technologies Ltd., Zurich, Switzerland). […] Near-infrared in vivo fluorescence imaging was performed with an In-Vivo MS FX PRO small animal imaging system (Bruker Biospin Corporation, Woodbridge, CT, USA). […] An appropriate filter set (excitation = 730 nm and emission = 790 nm) was used for acquiring the Sulfo-Cy7-FSC-peptide - fluorescence in vivo. […]
smiles,measurement,setting,value
"CSCC[C@H](NC(=O)[C@H](Cc1c[nH]c2ccccc12)NC(=O)CNC(=O)[C@H](Cc1ccc(O)cc1)NC(=O)[C@H](C)NC(=O)[C@@H](CCC(=O)O)NC(=O)CCSC1CC(=O)N(CCC(=O)N[C@H]2CCCN(O)C(=O)/C=C(/C)CCOC(=O)[C@@H](NC(=O)CCN3C(=O)CC(SCCC(=O)N[C@H](CCC(=O)O)C(=O)N[C@@H](C)C(=O)N[C@@H](Cc4ccc(O)cc4)C(=O)NCC(=O)N[C@@H](Cc4c[nH]c5ccccc45)C(=O)N[C@@H](CCSC)C(=O)N[C@@H](CC(=O)O)C(=O)N[C@@H](Cc4ccccc4)C(N)=O)C3=O)CCCN(O)C(=O)/C=C(/C)CCOC(=O)[C@@H](NC(=O)CCCCC[N+]3=C(C=CC4=CC(=CC=C5N(C)c6ccc(S(=O)(=O)[O-])cc6C5(C)C)CCC4)C(C)(C)c4cc(S(=O)(=O)O)ccc43)CCCN(O)C(=O)/C=C(/C)CCOC2=O)C1=O)C(=O)N[C@@H](CC(=O)O)C(=O)N[C@@H](Cc1ccccc1)C(N)=O (stereo partly drawn) [[^68Ga]Sulfo-Cy7-FSC-MG, metal not drawn] (I: [Mpa][dE]AYGWMDF-NH2 / II: [Mpa][dE]AYGWMDF-NH2; linker I:1-II:1 via X1)",tissue to tissue ratio,"[1]; female, athymic BALB/c nude, total radioactivity",< 0.5
same,tissue uptake at 2 h,[1]; accumulation in kidneys,71.1 ± 7 %ID/g
same,tissue uptake at 2 h,[1]; accumulation in liver tissue,25.7 ± 3.3 %ID/g
same,tissue uptake at 1 h,[1]; blood,4.7 ± 0.7 %ID/g
same,tissue uptake at 2 h,[1]; blood,3 ± 0.5 %ID/g
same,tissue uptake at 1 h,[1]; tumor uptake,3.1 ± 0.9 %ID/g
same,tissue uptake at 2 h,[1]; tumor uptake,3.8 ± 0.7 %ID/g
same,"remaining at 1 h, 2 μM",[2],95.1 ± 0.2%
same,"remaining at 2 h, 2 μM",[2],94.9 ± 0.4%
same,"remaining at 4 h, 2 μM",[2],94.4 ± 0.1%
same,internalized activity,"[3]; blocked with pentagastrin in 100-fold molar excess, 1 h",0.19 ± 0.1%
same,internalized activity,"[3]; blocked with pentagastrin in 100-fold molar excess, 2 h",0.44 ± 0.41%
same,unspecific membrane bound amount,[3]; 1 h,0.13 ± 0.06%
same,unspecific membrane bound amount,[3]; 2 h,0.25 ± 0.23%
same,unspecific membrane bound amount of activity,"[3]; unblocked, 1 h",0.21 ± 0.08%
same,internalized activity,"[3]; unblocked, 1 h incubation",4.56 ± 0.39 % of total activity
same,unspecific membrane bound amount of activity,"[3]; unblocked, 2 h",0.31 ± 0.29%
same,internalized activity,"[3]; unblocked, 2 h incubation",8.75 ± 1.32 % of total activity
same,logD,[4],-1.9 ± 0.17
same,fraction unbound at 2 μM,[5],< 0.3
same,PET target-to-organ contrast,[6],moderate target-to-organ contrast
